Results as given in article PMC3315329.

Experiments:
[1] = biological target: 40S ribosomal subunits of asc1Δ cells (lacking ASC1) (S. cerevisiae (endogenous in yeast)) (UniProt P32905); test: cross-linking + co-sedimentation
[2] = biological target: 40S ribosomal subunits (wild type) (S. cerevisiae (endogenous in yeast)) (UniProt P38011); test: cross-linking + co-sedimentation
Sequence of UniProt P38011 (P38011 whole entry, looked up, tested part not stated): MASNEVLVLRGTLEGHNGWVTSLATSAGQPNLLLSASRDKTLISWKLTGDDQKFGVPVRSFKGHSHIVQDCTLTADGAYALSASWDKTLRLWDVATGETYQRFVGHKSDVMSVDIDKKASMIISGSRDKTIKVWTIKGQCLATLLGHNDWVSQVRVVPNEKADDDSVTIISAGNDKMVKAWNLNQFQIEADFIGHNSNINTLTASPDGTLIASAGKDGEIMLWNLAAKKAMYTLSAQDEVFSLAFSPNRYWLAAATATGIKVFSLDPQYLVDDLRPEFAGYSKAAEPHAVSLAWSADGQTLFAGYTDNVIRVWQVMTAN

Sequence of UniProt P32905 (P32905 whole entry, looked up, stated change not applied, tested part not stated): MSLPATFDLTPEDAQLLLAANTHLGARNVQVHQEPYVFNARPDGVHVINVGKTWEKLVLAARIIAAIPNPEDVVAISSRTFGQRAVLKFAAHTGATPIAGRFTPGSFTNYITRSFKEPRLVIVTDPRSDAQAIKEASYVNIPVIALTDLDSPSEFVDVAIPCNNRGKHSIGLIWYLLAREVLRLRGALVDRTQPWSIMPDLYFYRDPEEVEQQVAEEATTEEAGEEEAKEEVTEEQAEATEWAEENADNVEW

reduction of the 40S-associated amount relative to wt [1] [%]	reduction of the 40S-bound amount in nip1-Δ60 cells relative to wt [2] [%]	reduction of the eIF/40S ratio in nip1-743A752 cells relative to wt [2] [%]	Substance
50			eIF2 (from UniProt P20459 1-304; P09064 1-285; P32481 1-527) (complex)
50	20	60	eIF5 (from UniProt P38431 1-405) (natural protein)
